B1: GC35 (bispecific antibody, human IgG1, kappa, L234A L235A)
heavy: EVQLVQSGAEVVKPGASVKMSCKASGYTFTNYVMHWVKQAPGQGLEWMGYFNPYNDGTNYNEKFKGRVTLTSDTSANTAYMELSSLRSEDTAVYYCARGGVRRYFDVWGQGTTVTVSSASTKGPSVFPLAPSSKSTSGGTAALGCLVKDYFPEPVTVSWNSGALTSGVHTFPAVLQSSGLYSLSSVVTVPSSSLGTQTYICNVNHKPSNTKVDKKVEPKSCDKTHTCPPCPAPEAAGGPSVFLFPPKPKDTLMISRTPEVTCVVVDVSHEDPEVKFNWYVDGVEVHNAKTKPREEQYNSTYRVVSVLTVLHQDWLNGKEYKCKVSNKALAAPIEKTISKAKGQPREPQVCTLPPSREEMTKNQVSLSCAVKGFYPSDIAVEWESNGQPENNYKTTPPVLDSDGSFFLVSKLTVDKSRWQQGNVFSCSVMHEALHNHYTQKSLSLSPGK
light: DIQMTQSPSSLSASVGDRVTITCRASQDIGSNLNWLQLGPGGAIKRLIYATFSLDSGVPSRFSGSRSGSDYTLTISSLQPEDFVDYYCQQYANFPPTFGGGTKVEIKRTVAAPSVFIFPPSDEQLKSGTASVVCLLNNFYPREAKVQWKVDNALQSGNSQESVTEQDSKDSTYSLSSTLTLSKADYEKHKVYACEVTHQGLSSPVTKSFNRGEC
chain: ELVVTQEPSLTTSPGGTVTLTCRSSTGAVTTSNYANWVQQKPGQAPRGLIGGTNKRAPGTPARFSGSLLGGKAALTITGVQPEDEAEYYCALWYSNLWVFGGGTKLTVLGGGGSGGGGSGGGGSEVQLVESGGGLVQPGGSLRLSCAASGFTFNTYAMNWVRQAPGKGLEWVARIRSKYNNYATYYADSVKDRFTISRDDSKNTAYLQMNNLKTEDTAMYYCVRHGNFGNSYVSWFAYWGQGTLVTVSSGEPKSSDKTHTCPPCPAPEAAGGPSVFLFPPKPKDTLMISRTPEVTCVVVDVSHEDPEVKFNWYVDGVEVHNAKTKPREEQYNSTYRVVSVLTVLHQDWLNGKEYKCKVSNKALAAPIEKTISKAKGQPREPQVYTLPPCREEMTKNQVSLWCLVKGFYPSDIAVEWESNGQPENNYKTTPPVLDSDGSFFLYSKLTVDKSRWQQGNVFSCSVMHEALHNRYTQKSLSLSPGK
notes: also called anti-GPRC5D/anti-CD3 bispecific antibody GC35
B2: GC39 (bispecific antibody, human IgG1, kappa, L234A L235A)
heavy: EVQLVESGGGLVQPGGSRRVSCAASGFTFSSFGMHWVRQAPGKGLEWVAYISRGSSTIYYADTVKGRFTISRDNAKNSLYLQMNSLRAEDTAVYYCARSGYGSSSYYFDYWGQGTTVTVSSASTKGPSVFPLAPSSKSTSGGTAALGCLVKDYFPEPVTVSWNSGALTSGVHTFPAVLQSSGLYSLSSVVTVPSSSLGTQTYICNVNHKPSNTKVDKKVEPKSCDKTHTCPPCPAPEAAGGPSVFLFPPKPKDTLMISRTPEVTCVVVDVSHEDPEVKFNWYVDGVEVHNAKTKPREEQYNSTYRVVSVLTVLHQDWLNGKEYKCKVSNKALAAPIEKTISKAKGQPREPQVCTLPPSREEMTKNQVSLSCAVKGFYPSDIAVEWESNGQPENNYKTTPPVLDSDGSFFLVSKLTVDKSRWQQGNVFSCSVMHEALHNHYTQKSLSLSPGK
light: EIVLTQSPATLSASPGERATMSCRASSSIRSSYLHWYQQKPGQSPRLWIYSTSNLASGVPARFSGSGSGTDYTLTISSLEPEDAAVYYCQQFSGYPLTFGGGTKVEIKRTVAAPSVFIFPPSDEQLKSGTASVVCLLNNFYPREAKVQWKVDNALQSGNSQESVTEQDSKDSTYSLSSTLTLSKADYEKHKVYACEVTHQGLSSPVTKSFNRGEC
chain: B1 chain
notes: also called anti-GPRC5D/anti-CD3 bispecific antibody GC39

Experiments:
human GPRC5D protein [1] = molecular target: T1, human GPRC5D protein (human, UniProt Q9NZD1 1-345); experiment: FACS on MM.1S cells
T1 construct: also called hGPRC5D; CHO-K1-hGPRC5D^hi

T cell surface CD3 [2] = molecular target: T2, T cell surface CD3 (human, UniProt P07766 23-207; P04234 22-171; P09693 23-182); experiment: FACS on human CD3+ T cells
T2 construct: CD3 is a complex of several chains; also called CD3^+ T cells

T cell surface CD3 [3] = molecular target: T2, T cell surface CD3; experiment: cell-based or functional assay
human GPRC5D protein [4] = molecular target: T1, human GPRC5D protein; experiment: cell-based or functional assay
human GPRC5D protein [5] = molecular target: T1, human GPRC5D protein; experiment: FACS on NCI-H929 cells
human GPRC5D protein [6] = molecular target: T1, human GPRC5D protein; experiment: FACS on RPMI-8226 cells

T2 sequence (P07766 23-207 limits assumed, chain 1 of 3): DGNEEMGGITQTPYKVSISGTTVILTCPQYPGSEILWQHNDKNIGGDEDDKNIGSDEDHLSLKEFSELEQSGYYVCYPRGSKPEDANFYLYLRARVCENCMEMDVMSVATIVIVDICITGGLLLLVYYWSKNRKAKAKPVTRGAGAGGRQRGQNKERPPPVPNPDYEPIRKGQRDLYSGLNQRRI
T2 sequence (P04234 22-171 limits assumed, chain 2 of 3): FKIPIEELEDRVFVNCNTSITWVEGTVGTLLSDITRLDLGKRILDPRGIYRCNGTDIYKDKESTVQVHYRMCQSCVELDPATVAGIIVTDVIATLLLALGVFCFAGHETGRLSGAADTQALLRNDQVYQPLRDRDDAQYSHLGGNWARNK
T2 sequence (P09693 23-182 limits assumed, chain 3 of 3): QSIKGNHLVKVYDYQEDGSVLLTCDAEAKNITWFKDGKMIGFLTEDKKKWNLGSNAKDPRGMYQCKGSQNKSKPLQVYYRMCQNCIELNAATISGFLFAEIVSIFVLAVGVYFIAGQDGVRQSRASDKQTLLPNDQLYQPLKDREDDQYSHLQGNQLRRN
T1 sequence (Q9NZD1 whole entry): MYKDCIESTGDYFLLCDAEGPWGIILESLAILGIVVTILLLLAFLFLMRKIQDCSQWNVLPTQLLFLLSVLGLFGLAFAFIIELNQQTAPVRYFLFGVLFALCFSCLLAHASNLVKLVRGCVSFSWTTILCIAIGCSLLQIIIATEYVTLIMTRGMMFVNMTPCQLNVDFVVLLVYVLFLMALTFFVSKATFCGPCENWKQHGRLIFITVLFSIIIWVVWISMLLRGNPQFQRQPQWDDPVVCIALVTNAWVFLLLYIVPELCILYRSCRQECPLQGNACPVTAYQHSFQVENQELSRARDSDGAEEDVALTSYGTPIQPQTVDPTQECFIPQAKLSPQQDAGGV

Binder | EC50 (human GPRC5D protein [1]) | EC50 (T cell surface CD3 [2]) | Top(MFI) (T cell surface CD3 [2]) | CD25/CD4 EC50(nM), activation of T cells in the presence of MM.1S (T cell surface CD3 [3]) | CD25/CD8 EC50(nM), activation of T cells in the presence of MM.1S (T cell surface CD3 [3]) | CD69/CD4 EC50(nM), activation of T cells in the presence of MM.1S (T cell surface CD3 [3]) | CD69/CD8 EC50(nM), activation of T cells in the presence of MM.1S (T cell surface CD3 [3]) | Lysis EC50(nM), MM.1S target cells with human PBMC (human GPRC5D protein [4]) | Lysis EC50(nM), NCI-H929 target cells with human PBMC (human GPRC5D protein [4]) | Lysis EC50(nM), RPMI-8226 target cells with human PBMC (human GPRC5D protein [4]) | EC50 (human GPRC5D protein [5]) | EC50 (human GPRC5D protein [6])
B1 | 3.75 nM | 48.9 nM | 54700 MFI | 0.00999 nM | 0.00879 nM | 0.00738 nM | 0.00458 nM | 0.00534 nM | 0.00592 nM | 0.0163 nM | 3.04 nM | 15.9 nM
B2 | 3.71 nM | 37.9 nM | 38000 MFI | 0.0596 nM | 0.0448 nM | 0.0438 nM | 0.0226 nM | 0.0335 nM | 0.0146 nM | 0.136 nM | 16.7 nM | –

Reference: EP4703384A1 (Chia Tai Tianqing Pharmaceutical Group Co., Ltd., dated 2026)
